Source: PMC5789952 (Proceedings of the National Academy of Sciences of the …, 2017)
Blank lines part the entries; values can stand above or below the binder they belong to.

How the values were obtained:
STAT1_(136–713) E169V = biological target: T1, STAT1_(136–713) E169V (mouse, UniProt P42225 136-713, E169V); test: ITC
T1 sequence (looked up): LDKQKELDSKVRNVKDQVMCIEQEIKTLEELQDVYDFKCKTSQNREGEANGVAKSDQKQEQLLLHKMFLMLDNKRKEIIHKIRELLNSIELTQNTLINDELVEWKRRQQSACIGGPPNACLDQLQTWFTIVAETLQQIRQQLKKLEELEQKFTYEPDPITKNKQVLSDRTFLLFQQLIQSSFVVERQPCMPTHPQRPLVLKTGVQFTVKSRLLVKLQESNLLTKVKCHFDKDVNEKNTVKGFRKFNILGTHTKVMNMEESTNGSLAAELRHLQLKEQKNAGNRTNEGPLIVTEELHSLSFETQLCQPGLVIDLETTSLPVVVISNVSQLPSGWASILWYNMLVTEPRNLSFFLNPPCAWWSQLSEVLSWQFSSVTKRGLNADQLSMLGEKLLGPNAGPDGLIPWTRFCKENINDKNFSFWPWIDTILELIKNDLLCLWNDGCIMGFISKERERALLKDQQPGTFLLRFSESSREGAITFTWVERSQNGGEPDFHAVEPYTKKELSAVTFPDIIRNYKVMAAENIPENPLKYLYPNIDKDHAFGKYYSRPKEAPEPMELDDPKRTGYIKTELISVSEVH

STAT2_(133–679) = biological target: T2, STAT2_(133–679) (mouse, UniProt Q9WVL2 133-679); test: ITC
T2 sequence (looked up): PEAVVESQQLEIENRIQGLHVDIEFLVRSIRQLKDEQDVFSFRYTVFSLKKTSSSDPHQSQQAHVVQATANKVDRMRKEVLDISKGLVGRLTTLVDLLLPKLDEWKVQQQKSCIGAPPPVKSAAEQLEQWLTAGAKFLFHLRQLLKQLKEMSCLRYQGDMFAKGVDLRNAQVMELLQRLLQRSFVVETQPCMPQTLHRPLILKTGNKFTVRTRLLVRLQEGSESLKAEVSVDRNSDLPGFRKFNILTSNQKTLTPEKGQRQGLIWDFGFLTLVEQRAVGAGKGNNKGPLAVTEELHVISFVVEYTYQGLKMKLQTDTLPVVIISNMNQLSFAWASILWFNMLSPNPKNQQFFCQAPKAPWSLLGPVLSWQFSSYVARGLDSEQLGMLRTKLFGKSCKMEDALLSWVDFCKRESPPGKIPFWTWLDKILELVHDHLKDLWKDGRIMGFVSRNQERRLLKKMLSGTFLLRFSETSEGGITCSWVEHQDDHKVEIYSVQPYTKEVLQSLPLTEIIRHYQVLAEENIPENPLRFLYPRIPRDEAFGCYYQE

STAT1_(136–713) = biological target: T3, STAT1_(136–713) (mouse, UniProt P42225 136-713); test: ITC
T3 sequence (looked up): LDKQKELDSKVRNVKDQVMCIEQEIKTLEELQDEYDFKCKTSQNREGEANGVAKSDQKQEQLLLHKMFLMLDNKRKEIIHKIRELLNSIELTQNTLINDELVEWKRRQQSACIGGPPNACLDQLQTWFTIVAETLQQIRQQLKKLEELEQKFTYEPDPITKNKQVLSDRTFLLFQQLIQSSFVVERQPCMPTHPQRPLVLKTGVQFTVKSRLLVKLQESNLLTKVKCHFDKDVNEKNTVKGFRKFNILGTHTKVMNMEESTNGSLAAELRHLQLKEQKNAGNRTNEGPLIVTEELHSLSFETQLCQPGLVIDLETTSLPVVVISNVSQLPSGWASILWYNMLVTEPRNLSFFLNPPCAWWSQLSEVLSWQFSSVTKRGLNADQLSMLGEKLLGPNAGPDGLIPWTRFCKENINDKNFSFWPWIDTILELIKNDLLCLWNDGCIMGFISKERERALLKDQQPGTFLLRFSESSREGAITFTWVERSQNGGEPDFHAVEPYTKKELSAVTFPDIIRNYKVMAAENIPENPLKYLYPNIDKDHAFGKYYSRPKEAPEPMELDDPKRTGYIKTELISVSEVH

STAT2_(133–679) V171E = biological target: T4, STAT2_(133–679) V171E (mouse, UniProt Q9WVL2 133-679, V171E); test: ITC
T4 sequence (looked up): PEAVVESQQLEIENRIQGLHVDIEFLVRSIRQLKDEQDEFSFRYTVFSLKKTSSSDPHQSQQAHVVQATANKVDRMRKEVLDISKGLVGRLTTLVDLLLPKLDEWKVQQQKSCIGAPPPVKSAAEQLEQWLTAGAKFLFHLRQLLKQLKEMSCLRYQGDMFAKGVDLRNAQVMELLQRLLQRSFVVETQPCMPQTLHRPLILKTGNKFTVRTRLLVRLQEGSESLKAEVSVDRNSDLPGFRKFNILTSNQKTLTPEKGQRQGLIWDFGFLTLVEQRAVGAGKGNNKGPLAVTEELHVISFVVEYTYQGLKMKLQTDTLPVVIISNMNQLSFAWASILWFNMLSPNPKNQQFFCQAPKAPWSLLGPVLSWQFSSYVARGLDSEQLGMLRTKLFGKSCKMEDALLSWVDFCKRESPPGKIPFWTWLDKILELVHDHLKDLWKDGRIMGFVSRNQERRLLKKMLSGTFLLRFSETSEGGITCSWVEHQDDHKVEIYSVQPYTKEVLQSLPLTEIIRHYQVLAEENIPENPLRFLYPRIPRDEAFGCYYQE

STAT2_(133–738) = biological target: T5, STAT2_(133–738) (mouse, UniProt Q9WVL2 133-738); test: SEC
T5 sequence (looked up): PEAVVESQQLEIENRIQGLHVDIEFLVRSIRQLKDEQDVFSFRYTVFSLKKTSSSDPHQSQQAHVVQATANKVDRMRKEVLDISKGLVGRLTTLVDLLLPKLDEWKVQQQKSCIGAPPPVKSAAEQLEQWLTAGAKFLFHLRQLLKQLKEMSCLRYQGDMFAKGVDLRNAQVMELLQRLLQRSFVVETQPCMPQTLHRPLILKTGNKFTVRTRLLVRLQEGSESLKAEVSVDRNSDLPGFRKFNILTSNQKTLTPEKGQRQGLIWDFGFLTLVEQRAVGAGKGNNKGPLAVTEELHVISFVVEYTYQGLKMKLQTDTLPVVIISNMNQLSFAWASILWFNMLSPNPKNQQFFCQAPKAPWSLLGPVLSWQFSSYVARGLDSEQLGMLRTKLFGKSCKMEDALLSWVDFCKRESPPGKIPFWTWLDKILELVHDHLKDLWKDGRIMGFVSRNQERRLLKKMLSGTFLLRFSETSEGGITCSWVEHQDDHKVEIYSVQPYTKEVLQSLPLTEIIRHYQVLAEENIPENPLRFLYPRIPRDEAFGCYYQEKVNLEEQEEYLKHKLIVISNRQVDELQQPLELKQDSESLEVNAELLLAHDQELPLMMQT

[1] = biological target: T6, IRF9–IAD_(182–385) E347A E348A (crystallised form in the complex) (mouse, UniProt Q61179 182-385, E347A | E348A); test: crystal structure
T6 sequence (looked up): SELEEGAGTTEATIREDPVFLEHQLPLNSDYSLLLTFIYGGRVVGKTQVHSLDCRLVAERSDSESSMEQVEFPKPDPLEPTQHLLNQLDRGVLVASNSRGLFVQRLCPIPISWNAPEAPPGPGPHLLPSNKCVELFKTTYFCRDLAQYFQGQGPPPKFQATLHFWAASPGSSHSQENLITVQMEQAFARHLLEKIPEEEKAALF

- Kd (STAT1_(136–713) E169V): 116 nM
- Kd (STAT2_(133–679)): 10 nM
- Kd (STAT1_(136–713)): 5000 nM
- Kd (STAT2_(133–679) V171E): 2500 nM
B1: IRF9–IAD_(182–385) (domain or fragment, mouse, UniProt Q61179 182-385, looked up)
chain: SELEEGAGTTEATIREDPVFLEHQLPLNSDYSLLLTFIYGGRVVGKTQVHSLDCRLVAERSDSESSMEQVEFPKPDPLEPTQHLLNQLDRGVLVASNSRGLFVQRLCPIPISWNAPEAPPGPGPHLLPSNKCVELFKTTYFCRDLAQYFQGQGPPPKFQATLHFWEESPGSSHSQENLITVQMEQAFARHLLEKIPEEEKAALF

- Kd (STAT2_(133–679)): 17 nM
B2: IRF9–IAD IF3 (L326A, F330A, I376A) (domain or fragment, mouse, UniProt Q61179 182-385, looked up)
chain: SELEEGAGTTEATIREDPVFLEHQLPLNSDYSLLLTFIYGGRVVGKTQVHSLDCRLVAERSDSESSMEQVEFPKPDPLEPTQHLLNQLDRGVLVASNSRGLFVQRLCPIPISWNAPEAPPGPGPHLLPSNKCVELFKTTYFCRDAAQYAQGQGPPPKFQATLHFWEESPGSSHSQENLITVQMEQAFARHLLEKAPEEEKAALF

- Kd (STAT2_(133–679)): 11 nM
B3: IRF9–IAD IF2 (R324E, D325K, Q331E, Q333E, P335S) (domain or fragment, mouse, UniProt Q61179 182-385, looked up)
chain: SELEEGAGTTEATIREDPVFLEHQLPLNSDYSLLLTFIYGGRVVGKTQVHSLDCRLVAERSDSESSMEQVEFPKPDPLEPTQHLLNQLDRGVLVASNSRGLFVQRLCPIPISWNAPEAPPGPGPHLLPSNKCVELFKTTYFCEKLAQYFEGEGSPPKFQATLHFWEESPGSSHSQENLITVQMEQAFARHLLEKIPEEEKAALF

- binding result (STAT2_(133–738)): binds
B4: full-length IRF9 (IRF9FL) (natural protein, mouse, UniProt Q61179 1-399, looked up)
chain: MASGKVRCTRKLRSWIVEQVESGHFPGVCWDDAAKTMFRIPWKHAGKQDFREDQDAAIFKAWALFKEKHKDGDIGHPAVWKTRLRCALNKSSEFEEVPERGRMDVAEPYKVYRILPAGTLPNQPRNQKSPCKRSISCVSPEREENMENGRTNGVVNHSDSGSNIGGGGNGSNRSDSNSNCNSELEEGAGTTEATIREDPVFLEHQLPLNSDYSLLLTFIYGGRVVGKTQVHSLDCRLVAERSDSESSMEQVEFPKPDPLEPTQHLLNQLDRGVLVASNSRGLFVQRLCPIPISWNAPEAPPGPGPHLLPSNKCVELFKTTYFCRDLAQYFQGQGPPPKFQATLHFWEESPGSSHSQENLITVQMEQAFARHLLEKIPEEEKAALFLLQHTEQSPSALGH

- binding result [1]: binds
B5: STAT2–CCD_(133–315) Q242A K243A (crystallised form) (domain or fragment, mouse, UniProt Q9WVL2 133-315, looked up)
chain: PEAVVESQQLEIENRIQGLHVDIEFLVRSIRQLKDEQDVFSFRYTVFSLKKTSSSDPHQSQQAHVVQATANKVDRMRKEVLDISKGLVGRLTTLVDLLLPKLDEWKVQQAASCIGAPPPVKSAAEQLEQWLTAGAKFLFHLRQLLKQLKEMSCLRYQGDMFAKGVDLRNAQVMELLQRLLQRS
